Measurements published in publication PMC12225155.

Biological target: importin α5 (UniProt P52294)
Test: co-immunoprecipitation, western blot
Conditions: reference: KIAA1429-WT; sites S1579

- binding against the reference: stronger
Substance: KIAA1429 (VIRMA) (from UniProt Q69YN4) KIAA1429-SA (S1579A)
